The data set deals with the molecule itself. In words: cryo-EM structure.

The record followed here is article doi:10.1101/2025.11.07.687187 (bioRxiv, 2025).

B1: SPATA5 wild-type, C-terminal 3xFLAG (enzyme, human, UniProt Q8NB90 1-893, looked up)
chain: MSSKKNRKRLNQSAENGSSLPSAASSCAEARAPSAGSDFAATSGTLTVTNLLEKVDDKIPKTFQNSLIHLGLNTMKSANICIGRPVLLTSLNGKQEVYTAWPMAGFPGGKVGLSEMAQKNVGVRPGDAIQVQPLVGAVLQAEEMDVALSDKDMEINEEELTGCILRKLDGKIVLPGNFLYCTFYGRPYKLQVLRVKGADGMILGGPQSDSDTDAQRMAFEQSSMETSSLELSLQLSQLDLEDTQIPTSRSTPYKPIDDRITNKASDVLLDVTQSPGDGSGLMLEEVTGLKCNFESAREGNEQLTEEERLLKFSIGAKCNTDTFYFISSTTRVNFTEIDKNSKEQDNQFKVTYDMIGGLSSQLKAIREIIELPLKQPELFKSYGIPAPRGVLLYGPPGTGKTMIARAVANEVGAYVSVINGPEIISKFYGETEAKLRQIFAEATLRHPSIIFIDELDALCPKREGAQNEVEKRVVASLLTLMDGIGSEVSEGQVLVLGATNRPHALDAALRRPGRFDKEIEIGVPNAQDRLDILQKLLRRVPHLLTEAELLQLANSAHGYVGADLKVLCNEAGLCALRRILKKQPNLPDVKVAGLVKITLKDFLQAMNDIRPSAMREIAIDVPNVSWSDIGGLESIKLKLEQAVEWPLKHPESFIRMGIQPPKGVLLYGPPGCSKTMIAKALANESGLNFLAIKGPELMNKYVGESERAVRETFRKARAVAPSIIFFDELDALAVERGSSLGAGNVADRVLAQLLTEMDGIEQLKDVTILAATNRPDRIDKALMRPGRIDRIIYVPLPDAATRREIFKLQFHSMPVSNEVDLDELILQTDAYSGAEIVAVCREAALLALEEDIQANLIMKRHFTQALSTVTPRIPESLRRFYEDYQEKSGLHTL
Turning to B1, the binding result was “binds”.
